Experimental findings from US20190255141 (published 2019) are described below.

The target in assay [1] is T1, human furin (human, UniProt P09958). Briefly: other, pH 7.0, 37C.
Assay [2] deals with T1, human furin. Briefly: other, pH 7.0, 37C. This is another data set of the same source.

Ends that are not written are not given here.

T1 sequence (P09958 108-715): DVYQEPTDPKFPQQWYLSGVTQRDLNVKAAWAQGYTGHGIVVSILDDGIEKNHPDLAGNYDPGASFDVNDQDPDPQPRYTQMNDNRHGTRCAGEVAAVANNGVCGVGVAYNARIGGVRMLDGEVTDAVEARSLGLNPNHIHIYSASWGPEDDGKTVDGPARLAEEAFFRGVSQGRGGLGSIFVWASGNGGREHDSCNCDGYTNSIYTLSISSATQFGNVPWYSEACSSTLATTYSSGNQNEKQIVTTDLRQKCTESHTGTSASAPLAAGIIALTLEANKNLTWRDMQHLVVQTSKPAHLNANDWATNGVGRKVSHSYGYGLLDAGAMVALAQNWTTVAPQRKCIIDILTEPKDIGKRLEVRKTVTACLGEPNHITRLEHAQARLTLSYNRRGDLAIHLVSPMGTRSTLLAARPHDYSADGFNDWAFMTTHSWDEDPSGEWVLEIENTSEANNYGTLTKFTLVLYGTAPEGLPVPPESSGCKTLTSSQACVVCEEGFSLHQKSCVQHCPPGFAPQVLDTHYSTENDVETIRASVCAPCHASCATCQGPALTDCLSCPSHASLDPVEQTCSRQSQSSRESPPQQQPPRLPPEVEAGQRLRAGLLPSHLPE

For orientation: Ki means the equilibrium dissociation constant of an inhibitor or competing ligand from its target. Read a low Ki as tighter binding. Molecule KAAK (not fully specified (N-terminus, C-terminus); printed as C16-KAAK-C16) [C16-KAAK-C16] returned an inhibition constant Ki with human furin [1] of 0.97 µM.
Same read-out and setting: next, KAAAAK (not fully specified) [C16-KAAAAK-C16]: 1.75 µM.
For Lys-Ala-Lys (not fully specified (N-terminus, C-terminus); printed as C16-KAK-C16) [C16-KAK-C16], the Ki came out at 15.2 µM with trypsin and 0.54 µM in the assay with human furin [1].
For the molecule Lys-Gly-Lys (not fully specified (N-terminus, C-terminus); printed as C16-KGK-C16) [C16-KGK-C16], in the assay with trypsin, the inhibitory constant (Ki) was 41.6 µM.
As to KAAAK (not fully specified (N-terminus, C-terminus); printed as C16-KAAAK-C16) [C16-KAAAK-C16], the inhibitory constant (Ki) in the assay with trypsin was found to be 40.3 µM; with human furin [1], 1.72 µM.
On to Lys-Lys (not fully specified (N-terminus, C-terminus); printed as C16-KK-C16) [C16-KK-C16], for which the binding result with human furin [2] is recorded as “no binding”. The molecule further registered a Ki in the assay with trypsin of 84.7 µM.
Consider KGGGK (not fully specified) [C16-KGGGK-C16], for which the Ki with trypsin was determined as 11.1 µM.
